Experimental data from paper doi:10.1101/2023.07.22.550172 (bioRxiv, 2023).

Target: the molecule itself
Experiment: cryo-EM structure

B1: major pilin PilA of Myxococcus xanthus (MXAN_5783), mature, as the subunit of the type IV pilus (natural protein, UniProt Q59589 13-220, looked up)
chain: FTLIELMIVVAIIGILAAIAIPNFIKFQARSKQSEAKTNLKALYTAQKSFFSEKDRYSDFANEIGFAPERGNRYGYRVSAAAGDCEVRNAADLPVPAAGVPCISNDSFRFGANSAIDDPTPVVARFVPQGAAGWNTTLGVQPTIADCPNCNFFAGARGNADNEATFDDWVIAGFEGSGQVGPCSEAGNVASGTPYNTRNDVACDGAAQ
Question: Does B1 bind?
Answer: binds
